Experimental data as given in patent US20210333284A1, “METHODS AND MATERIALS FOR LARGE-SCALE ASSESSMENT OF LIGAND BINDING SELECTIVITY OF G-QUADRUPLEX RECOGNITION USING CUSTOM G4 MICROARRAYS” (Purdue Research Foundation, priority 2020, published 2021).
Values belong to the molecule of their own block, whether it stands above or below them.

Legend:
[1] = tested on: genomic G4 sequences (folded G4 structures); assay: G4 microarray binding in potassium vs lithium; set-up: species or system human; details: GST-tagged proteins
Description: The binding specificities of several molecules were evaluated. Microarrays were preincubated with 100 mM potassium chloride to induce G4 formation. Binding of each molecule is measured by detection of fluorescence intensity at each of the microarray features. BG4 and pyridostatin were conjugated with Cy5. Cellular proteins were expressed as chimeric proteins containing GST, and binding for these proteins was detected using an anti-GST antibody conjugated with Cy5 (Materials and Methods). G4 Structures Fold on DNA Microarrays. To evaluate the utility of DNA microarrays to examine G4-binding specificity, a Cy5-labeled pyridostatin (Cy5-PDS), a small molecule known to bind broadly to G4 structures, was synthesized.^13 A Cy5 conjugated version of BG4 (Cy5-BG4), an antibody developed to bind G4s, was also obtained.^31 FIG. 1A, B presents replicate binding intensities to 15,491 DNA sequences on the Design 3 microarray using either Cy5-PDS or Cy5-BG4. For Cy5-PDS, robust binding is observed at 1 μM, with fluorescence intensities ranging over 100-fold between strongest and weakest bound DNA features. The fluorescence-binding intensities of Cy5-PDS are proportional to the concentration of pyridostatin used). […] Antibody binding to non-G4 features increases with higher concentrations, and in some cases non-G4 sequences are more strongly bound by Cy5-BG4 than G4 sequences, including multiple cytosine-rich negative control sequences. Inhibition of G4 Formation Inhibits Cy5-PDS and Cy5-BG4 Binding. Cy5-PDS and Cy5-BG4 binding under conditions that inhibit G4 formation was examined to evaluate if G4 structures form on the microarray and are required for binding. […] It is noted that many sequences, in addition to the oncogene G4 sequences, are capable of forming G4s. […] For Cy5-BG4, the decrease in binding was up to 270-fold for genomic G4 sequences, while binding to negative controls decreased up to 23-fold (FIG. 1D,). In a second experiment, Cy5-PDS binding following a primer extension reaction that produces dsDNA^24 was examined (see Materials and Methods), anticipating that dsDNA would predominate over G4 formation^13. […] 2,27,28
(§1) Microarrays were preincubated with a 100 mM potassium chloride solution for 1 h at RT to induce G4 formation. Protein binding microarray experiments were then performed as previously described.^23 Microarrays were blocked with 4% nonfat dry milk in a potassium phosphate buffer before incubation with proteins or small molecules. Expressed proteins were blocked with 4% nonfat dry milk, ssDNA, and BSA. For the validation experiments, microarrays were also treated with 100 mM lithium chloride to inhibit G4 formation. For experiments examining dsDNA, single-stranded DNA probes were made double-stranded using a primer complementary to a 24-mer constant sequence following the method described previously.^23,24 Double stranding efficiency was monitored using 4% Cy3-dCTP.
Protein or molecule-bound microarrays were scanned with the G5761A SureScan Dx Microarray Scanner System (Agilent) to detect a Cy5 signal at two laser settings (30 and 100 PMT) to ensure signal intensities were below saturation. Spot intensities from microarray images were extracted using the Agilent Feature Extraction Software and are reported as raw fluorescence units. All binding assays were performed at least twice, with high agreement between replicates (R>0.8). Microarrays with the fewest number of saturated spots were used for further analysis. Median intensity was then computed for probes containing identical sequence on each microarray. […]

[2] = tested on: human telomeric G4s; assay: G4 microarray direct binding to telomeric G4s; details: GST-tagged helicases
Description: as §1
Protein or molecule-bound microarrays were scanned with the G5761A SureScan Dx Microarray Scanner System (Agilent) to detect a Cy5 signal at two laser settings (30 and 100 PMT) to ensure signal intensities were below saturation. Spot intensities from microarray images were extracted using the Agilent Feature Extraction Software and are reported as raw fluorescence units. […] The measured array data (Design 3, PDS) and predictions were normalized using the following
DNA Microarray Binding Experiments DNA microarray experiments were performed and analyzed as described previously. […]

[3] = tested on: G4 sequences on custom G4 microarray; assay: G4 microarray competition of unlabeled molecule with Cy5-PDS; assay type: binding, human
Excerpt: Whether the microarray platform could be used to reveal the G4-binding specificity of unlabeled molecules via a competition with Cy5-PDS binding was explored. Three example molecules, unlabeled PDS, TMPyP4 (a planar molecule that nonspecifically binds G4 structures^14), and DC-34 (a molecule that selectively binds the MYC G4^15) were examined. […] The binding of unlabeled DC-34 was examined (FIG. 4). There appear to be no features that are better-bound in the presence of DC-34. […] This is consistent with the observation that DC-34 binds the top and bottom surfaces of the G4 and makes specific contacts with purines in the tail sequences.^15 The general properties of features in which DC-34 reduced binding of Cy5-PDS (ratio of PDS/PDS+DC-34) were also examined.
as §1
Protein or molecule-bound microarrays were scanned with the G5761A SureScan Dx Microarray Scanner System (Agilent) to detect a Cy5 signal at two laser settings (30 and 100 PMT) to ensure signal intensities were below saturation. Spot intensities from microarray images were extracted using the Agilent Feature Extraction Software and are reported as raw fluorescence units. All binding assays were performed at least twice, with high agreement between replicates (R>0.8). Microarrays with the fewest number of saturated spots were used for further analysis. […] The measured array data (Design 3, PDS) and predictions were normalized using the following
Custom G4 microarrays have been designed that contain a total of 19,249 G4 DNA sequences [31, the entirety of disclosure of which, including the supplemental information, is incorporated herein by reference]. […] After washing to remove the unbound Cy5-PDS and BMVC, the fluorescence intensities of Cy5-PDS bound to DNA oligonucleotides were detected using a fluorescence scanner. The binding selectivity of BMVC to different G4 structures was assessed by measuring the relative fluorescence intensity reduction of Cy5-PDS as BMVC concentration increased. […]

[4] = tested on: G4 sequences and non-G4 ssDNA controls on Design 3 microarray; assay: Custom G4 DNA microarray, direct binding by fluorescence intensity; set-up: species or system human
Excerpt: Three Agilent DNA microarrays (TABLE 1) were designed, each with four identical sectors that contain ca.177,440 ssDNA 60-mers to examine G4-binding specificity. Arrays were designed with 9-73 replicates of each unique sequence to ensure statistical significance (TABLE 1). Each microarray contains different sets of G4 variants designed to examine several sequence parameters that affect G4 formation and binding specificity such as loop length (Design 1), loop sequence (Design 2), tail sequence (Design 2), and single nucleotide variants of six known G4s (Design 3). All microarrays include a set of 19 sequences from human telomeres and oncogene promoters known to form G4s with various topologies as positive controls (TABLE 2). Designs 2 and 3 have a set of 295 additional G4-forming sequences from the literature.^30 For the loop length variants, the length of the tails and loops of four different MYC G4 sequences (MYC Pu27, MYC Pu18ntd, MYC Pu22, and MYC Pu22 NMR mutant) was increased up to five times their length. Loop and tail sequences were varied using A, T, G, and C polynucleotide stretches and a subset of combinations. For the loop sequence variants, 4,096 sequences of the form NGGGNGGGNNGGGNGGGN (SEQ ID NO: 2) and 64 variants of the form GGGNGGGNGGGNGGG (SEQ ID NO: 1) were generated. For the tail variants, 256 versions of the major MYC G4 with all possible dinucleotide tails ([…] (SEQ ID NO: 3)) were generated. […]
The binding specificities of several molecules were evaluated. […] Binding of each molecule is measured by detection of fluorescence intensity at each of the microarray features. […] Cellular proteins were expressed as chimeric proteins containing GST, and binding for these proteins was detected using an anti-GST antibody conjugated with Cy5 (Materials and Methods). […] For Cy5-PDS, robust binding is observed at 1 μM, with fluorescence intensities ranging over 100-fold between strongest and weakest bound DNA features. The fluorescence-binding intensities of Cy5-PDS are proportional to the concentration of pyridostatin used). […]

Molecule: WRN: GST-tagged human Werner syndrome RecQ like helicase
effect of lithium chloride (inhibiting G4 formation) on protein binding [1]: weakened binding
binding to hTelomeric (hyb-2 G4) and hTelomeric1 (hyb-1 G4) sequences [2]: can bind both hTelomeric (hyb-2 G4) and hTelomeric1 (hyb-1 G4) sequences

effect of unlabeled competitor on Cy5-PDS binding ([3]; 1 μM Cy5-PDS, various concentrations of unlabeled competitor): no change in binding specificity
binding selectivity profile to different G4 sequences ([3]; 1 μM unlabeled ligand and 1 μM Cy5-PDS): bind less selectively
Molecule: NCCOc1cc(C(=O)Nc2cc(OCCN)c3ccccc3n2)nc(C(=O)Nc2cc(OCCN)c3ccccc3n2)c1 [pyridostatin]

Molecule: BLM: GST-tagged human Bloom's syndrome protein helicase
effect of lithium chloride (inhibiting G4 formation) on protein binding [1]: weakened binding
binding to hTelomeric (hyb-2 G4) and hTelomeric1 (hyb-1 G4) sequences [2]: specifically binds the wt hTelomeric sequence that forms hyb-2 G4

Molecule: CNBP: GST-tagged human cellular nucleic acid binding protein
effect of lithium chloride (inhibiting G4 formation) on protein binding [1]: does not inhibit DNA binding

binding specificity, G4 vs non-G4 ssDNA sequences [4]: bind only G4 sequences
Molecule: IGF2: GST-tagged human insulin-like growth factor II, full length ORF
effect of lithium chloride (inhibiting G4 formation) on protein binding [1]: weakened binding

B1: PIF1: GST-tagged human PIF1 helicase (protein, listed as Homo sapiens)
chain: MLSGIEAAAGEYEDSELRCRVAVEELSPGGQPRRRQALRTAELSLGRNERRELMLRLQAPGPAGRPRCFPLRAARLFTRFAEAGRSTLRLPAHDTPGAGAVQLLLSDCPPDRLRRFLRTLRLKLAAAPGPGPASARAQLLGPRPRDFVTISPVQPEERRLRAATRVPDTTLVKRPVEPQAGAEPSTEAPRWPLPVKRLSLPSTKPQLSEEQAAVLRAVLKGQSIFFTGSAGTGKSYLLKRILGSLPPTGTVATASTGVAACHIGGTTLHAFAGIGSGQAPLAQCVALAQRPGVRQGWLNCQRLVIDEISMVEADLFDKLEAVARAVRQQNKPFGGIQLIICGDFLQLPPVTKGSQPPRFCFQSKSWKRCVPVTLELTKVWRQADQTFISLLQAVRLGRCSDEVTRQLQATASHKVGRDGIVATRLCTHQDDVALTNERRLQELPGKVHRFEAMDSNPELASTLDAQCPVSQLLQLKLGAQVMLVKNLSVSRGLVNGARGVVVGFEAEGRGLPQVRFLCGVTEVIHADRWTVQATGGQLLSRQQLPLQLAWAMSIHKSQGMTLDCVEISLGRVFASGQAYVALSRARSLQGLRVLDFDPMAVRCDPRVLHFYATLRRGRSLSLESPDDDEAASDQENMDPIL
modifications: GST tag
notes: GST-tagged human PIF1 helicase
effect of lithium chloride (inhibiting G4 formation) on protein binding [1]: does not inhibit DNA binding
